In patent US20240294963:

How the values were obtained:
[1] = system: T1, peptide with the YNST sequence from Fc
T1 sequence: YNST

[2] = system: constant region (Fc) of a human immunoglobulin antibody (IgG1) [IgG part: P01857]
[3] = target: Granulocyte-Macrophage Colony-Stimulating Factor (GM-CSF) (UniProt P04141)
[4] = system: T2, peptide with the LNLS sequence from GM-CSF
T2 sequence: LNLS

[5] = system: T3, peptide with the sequence TNYS found in IFNγ
T3 sequence: TNYS

[6] = target: Interferon-gamma (IFNγ) (UniProt P01579)
Interferon-gamma (IFNγ), sequence (P01579 24-166): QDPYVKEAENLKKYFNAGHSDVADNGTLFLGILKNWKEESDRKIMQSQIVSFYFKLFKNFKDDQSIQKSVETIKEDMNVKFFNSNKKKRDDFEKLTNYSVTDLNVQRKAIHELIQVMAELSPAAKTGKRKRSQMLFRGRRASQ

Granulocyte-Macrophage Colony-Stimulating Factor (GM-CSF), sequence (P04141 18-144): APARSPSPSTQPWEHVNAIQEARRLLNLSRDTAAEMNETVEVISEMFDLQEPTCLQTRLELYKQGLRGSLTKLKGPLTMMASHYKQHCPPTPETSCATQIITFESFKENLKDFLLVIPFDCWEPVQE

In the case of ApQ mutant H495D, the “peptide modification (glycosylation), SAMDI-MS” value (“peptide modification” for short) [1] is reported as “H495D glycosylated the YNST sequence from Fc more efficiently than did ApQ”, the “modification of Fc relative to ApQ, 2 µM H495D added before CFPS” value [2] is reported as “significantly increased the modification of Fc to 60% or by 1.3-fold” and the “modification of Fc, 2 µM H495D added before CFPS” value [2] is reported as “significantly increased the modification of Fc to 60% or by 1.3-fold”. For the same substance, the “modification of Fc, 5 µM H495D during CFPS” value [2] was 80% modification of Fc could be achieved.

ApQ mutant T438S was tested, and the “protein modification (glycosylation), LC-qTOF of tryptic peptides” value (“protein modification (glycosylation)” for short) [3] was “increase the modification of the therapeutic proteins IFNγ GM-CSF, and Fc using the A469I, T438S, and H495D mutants of ApQ, respectively” and the “peptide modification” value [4] was “T438S glycosylated the LNLS sequence from GM-CSF more efficiently than did ApQ”.

ApQ mutant A469I was tested, and the “peptide modification” value [5] was “the purified A469I mutant glycosylated the sequence TNYS found in IFNγ more efficiently than did ApQ” and the “protein modification (glycosylation)” value [6] was “increase the modification of the therapeutic proteins IFNγ GM-CSF, and Fc using the A469I, T438S, and H495D mutants of ApQ, respectively”.

With “Q469A mutant of Actinobacillus pleuropneumoniae N-glycosyltransferase (ApNGT)” the “glycosylation efficiency of Fc, 2 µM ApQ added after CFPS” value [2] was “the glycosylation efficiency of Fc was increased from 15% to 46%”, the “glycosylation efficiency of Fc, 2 µM ApQ added before CFPS” value [2] was “the glycosylation efficiency of Fc was increased from 15% to 46%” and the “protein modification (glycosylation)” value [6] was “ApQ showed no detectable modification of IFNγ (marked as "ND")”.
